Tests used:
[1] = system: RAW 264.7 cells; assay: LPS-induced NO production in RAW 264.7 cells (Griess reagent); format: cell-based, murine; conditions: pre-incubated with LPS, 6 hours incubation (FIG. 1B)
Description: Human leukemia monocytic THP-1 cells and murine macrophage cell line RAW 264.7 were obtained from the American Type Culture Collection. THP-1 cells were grown in suspension in RPMI-1640 supplemented with 10 mM HEPES, 1 mM sodium pyruvate, 0.1% β-mercaptoethanol, 100 U/ml penicillin, 100 µg/ml streptomycin, and 10% fetal bovine serum (FBS). RAW 264.7 cells were grown as an adhered layer in Dulbecco's modified Eagle's medium with 4 mM L-glutamine adjusted to contain 1.5 g/l sodium bicarbonate and 4.5 g/l glucose, 100 U/ml penicillin, […] streptomycin, and 10% FBS under a humidified 5% CO2 atmosphere at 37° C. For differentiation, THP-1 cells were plated in medium containing 10 nM PMA and allowed to adhere for 18 h.
(§1) TNF-α in conditioned medium or mouse serum was measured by an enzyme-linked immunosorbent assay (ELISA) (R&D Systems, Minneapolis, Minn.). Accumulation of nitrite in the medium or mouse serum was determined by a colorimetric assay using Griess reagent (Sigma-Aldrich). Blood urea nitrogen (BUN) and creatinine were measured with a Roche D&P modular (Roche Diagnostic Systems, Branchburg, N.J.). Assays were performed according to the manufacturer's protocol.

[2] = system: RAW 264.7 cells; assay: Western blotting of LPS-induced signaling pathways in RAW 264.7 cells; format: cell-based, murine
Description: rTMD1 (0-50 μg/mL, equals 0-2.18 nmole/mL) pre-incubated without or with Escherichia coli (E. coli) LPS (LPS O111:B4, Sigma-Aldrich) in the absence or presence of Lewis Y (Le^y; Dextra Laboratories, Reading, UK) for 30 minutes was used to stimulate THP-1 or RAW 264.7 cells. Incubation period included 15 minutes for pIκB and IκB (B-9 and C-21, Santa Cruz Biotechnology, Santa Cruz, Calif., unless otherwise noted), 20 minutes for p38 (C-20) and pp38 (D-8), 30 minutes for ERK1/2 (K-23), pERK1/2 (E-4), lamin B2 (E-3, Zymed Laboratories, San Francisco, Calif.), NF-κB p50 (C-19) and NF-κB p65 nuclear translocation (C-20), and 24 hours for iNOS expression using a specific antibody (N-20).

[3] = Lethal sepsis model (LPS 40 mg/kg i.p.), survival; format: in vivo, Male FVB mice; conditions: four i.v. doses of 2 mg/kg
Description: (§2) Male FVB mice (8-10 weeks old) were used to model sepsis in vivo. The Institutional Animal Care and Use Committee of the National Cheng Kung University approved procedures. In the chronic endotoxemia model, various concentrations of rTMD1 or rTMD proteins in equi-molar amounts were administrated by tail intravenous (i.v.) injection and LPS (20 mg/kg) or K. pneumoniae (5×10^2 CFU/mouse, BCRC) was administrated by intraperitoneal (i.p.) injection. After 6 or 12 hours, mice were sacrificed by pentobarbital anesthesia (50 mg/kg; i.p.). […] The half-life of rTMD1 in the circulation was determined by i.v. injection of rTMD1 (10 mg/kg, equals 436.64 nmole/kg) and serum samples were collected at various time intervals. The levels of rTMD1 in the collected sera were determined by a sandwich ELISA which employed anti-c-Myc monoclonal antibody and TM-H300 as capture and detection antibodies (both from Santa Cruz Biotechnology), respectively. […] Mortality was monitored every 6-12 hours until all mice in either experimental group died. […] Serum samples were collected at various time intervals and the amount of LPS was determined by Limulus amebocyte lysate test (Associates of Cape Cod, E. Falmouth, Mass.). […] Outgrowth of K. pneumoniae was quantified by plating serial dilutions of blood samples on blood agar plates and enumerating colonies after overnight incubation at 37° C.

[4] = system: K. pneumoniae; assay: Lethal bacteremia model (K. pneumoniae 5×10^3 CFU/mouse), survival; format: in vivo, Male FVB mice; conditions: single i.v. dose 10 mg/kg; K. pneumoniae 5×10^3 CFU
Description: as §2

[5] = system: E. coli DH5α; assay: Bacterial agglutination, FITC-labeled E. coli DH5α; conditions: 20 μg/mL protein, 5 mM CaCl2
Description: (§3) K. pneumoniae and E. coli DH5α (BCRC) were washed twice in 0.1 M sodium bicarbonate buffer (pH 9.6) and incubated with 0.1 mg/mL fluorescein isothiocyanate (FITC) at 37° C. in the dark. Each of 20 μg/mL of rTMD1, non-tagged rTMD1, mammalian rTMD1, and recombinant TM domains 2 and 3 (rTMD23) was co-incubated with FITC-labeled bacteria (1×10^5CFU/mL) in buffer (20 mM Tris, pH 7.4, 0.15 M NaCl, 5 mM CaCl2, 1 mg/mL BSA) with or without 0.2 M mannose or 5 mM EDTA. Samples were individually placed on a glass slide and fluorescently-labeled bacteria were observed microscopically to evaluate agglutination.

[6] = system: K. pneumoniae; assay: Bacterial agglutination, FITC-labeled K. pneumoniae; conditions: 20 μg/mL protein, 5 mM CaCl2
Description: as §3

[7] = Chronic endotoxemia model (LPS 20 mg/kg i.p.) in mice; format: in vivo, Male FVB mice
Description: as §1
Male FVB mice (8-10 weeks old) were used to model sepsis in vivo. The Institutional Animal Care and Use Committee of the National Cheng Kung University approved procedures. In the chronic endotoxemia model, various concentrations of rTMD1 or rTMD proteins in equi-molar amounts were administrated by tail intravenous (i.v.) injection and LPS (20 mg/kg) or K. pneumoniae (5×10^2 CFU/mouse, BCRC) was administrated by intraperitoneal (i.p.) injection. After 6 or 12 hours, mice were sacrificed by pentobarbital anesthesia (50 mg/kg; i.p.). Sera were collected and assayed for TNF-α, NO, BUN, and creatinine, and lung and kidney tissues were removed, fixed with formalin, and embedded in paraffin for histochemical examination. In the lethal sepsis model, rTMD1 (2 mg/kg, equals 87.3 nmole/kg) was i.v.-administrated at 0, 6, 12, and 24 hours after i.p. administration of LPS (40 mg/kg). The half-life of rTMD1 in the circulation was determined by i.v. injection of rTMD1 (10 mg/kg, equals 436.64 nmole/kg) and serum samples were collected at various time intervals. The levels of rTMD1 in the collected sera were determined by a sandwich ELISA which employed anti-c-Myc monoclonal antibody and TM-H300 as capture and detection antibodies (both from Santa Cruz Biotechnology), respectively. For the lethal bacteremia model, rTMD1 (10 mg/kg) was administrated prior to i.p. injection of K. pneumoniae (5×10^3 CFU/mouse). Mortality was monitored every 6-12 hours until all mice in either experimental group died. Experimental procedure of determining LPS half-life is as following. LPS (20 mg/kg) was i.p.-administrated to male FVB mice without or with rTMD1 (10 mg/kg; i.v.). Serum samples were collected at various time intervals and the amount of LPS was determined by Limulus amebocyte lysate test (Associates of Cape Cod, E. Falmouth, Mass.). A further experiment was performed to determine whether rTMD1 affects bacterial clearance. K. pneumoniae (5×10^2 CFU/mouse) was i.p.-administrated to male FVB mice without or with rTMD1 (10 mg/kg; i.v.), and blood samples were collected at various time intervals. Outgrowth of K. pneumoniae was quantified by plating serial dilutions of blood samples on blood agar plates and enumerating colonies after overnight incubation at 37° C.

[8] = 12 hours after LPS, compared with LPS-treated mice
[9] = rTMD1 1-5 mg/kg i.v., 6 hours after LPS 20 mg/kg i.p.

B1: rTMD1: recombinant human thrombomodulin N-terminal lectin-like domain (residues Ala1-Ala155) with 6×His tag and c-Myc epitope, Pichia pastoris expressed (protein)
chain: EFAPAEPQPGGSQCVEHDCFALYPGPATFLNASQICDGLRGHLMTVRSSVAADVISLLLNGDGGVGRRRLWIGLQLPPGCGDPKRLGPLRGFQWVTGDNNTSYSRWARLDLNGAPLCGPLCVAVSAAEATVPSEPIWEEQQCEVKADGFLCEFHFPAYLEDDDDKIEQKLISEEDLNSAVDHHHHHH
modifications: left off: small tags and cut ends
For B1, the “NO production in RAW 264.7 cells” value [1] was “effectively inhibit”, the “LPS-induced nuclear translocation of NF-κB” value ([2]; FIG. 1E) was “inhibited in a dose-dependent fashion” and the “LPS-induced phosphorylation of ERK1/2 and p38” value ([2]; FIG. 1F) was “inhibited”. The “LPS-induced phosphorylation and degradation of IκBα” value ([2]; LPS 100 ng/mL, rTMD1 50 μg/mL (2.18 nmole/mL)) was “totally reversed”, the “iNOS induction by LPS” value ([2]; RAW 264.7 cells, FIG. 1G) was “inhibited” and the survival ([3]; 1 day after LPS challenge) was 100%. The survival ([3]; 4 days after LPS challenge) was 60%, the “mice surviving more than 24 hours” value [4] was 50% and the “agglutination of E. coli DH5α” value [5] was “induced marked agglutination”. For the same molecule, the “agglutination of K. pneumoniae” value [6] was “induced marked agglutination”, the “pulmonary accumulation of PMNs / LPS-induced inflammatory responses” value ([7]; 6 hours after LPS administration (FIG. 2C-D)) was “significantly inhibited” and the BUN level [7, 8] was “markedly reduced”. The serum creatinine level [7, 8] was “markedly reduced”, the extent of glomerulonephritis ([7]; kidney, 12 hours after LPS 20 mg/kg (FIG. 2E)) was “significantly reduced” and the “NO levels in mice” value [7, 9] was “significantly decreasing levels”. For the same molecule, the “TNF-α levels in mice” value [7, 9] was “significantly decreasing levels”.
